The chains are these.
B1: BAP058-hum01 (antibody, human IgG4 S228P, kappa, V domains shown)
VH: QVQLVQSGAEVKKPGASVKVSCKASGYTFTSYWMYWVRQATGQGLEWMGRIDPNSGSTKYNEKFKNRFTISRDDSKNTAYLQMNSLKTEDTAVYYCARDYRKGLYAMDYWGQGTTVTVSS
VL: DIVMTQTPLSLPVTPGEPASISCKASQDVGTAVAWYLQKPGQSPQLLIYWASTRHTGIPARFSGSGSGTEFTLTISSLQSEDFAVYYCQQYNSYPLTFGQGTKVEIKR
notes: Humanized IgG4(S228P)/human kappa mAb expressed in CHO cells
B2: BAP058-hum02 (antibody, human IgG4 S228P, kappa, V domains shown)
VH: B1 VH
VL: DIQMTQSPSSLSASVGDRVTITCKASQDVGTAVAWYLQKPGQSPQLLIYWASTRHTGVPSRFSGSGSGTDFTLTISSLQPEDFATYYCQQYNSYPLTFGQGTKVEIKR
notes: as for B1
B3: BAP058-hum07 (antibody, human IgG4 S228P, kappa, V domains shown)
VH: B1 VH with V37I, A40S, T41P, G42S, Q43R, M48L
VL: EIVLTQSPATLSLSPGERATLSCKASQDVGTAVAWYLQKPGQSPQLLIYWASTRHTGIPPRFSGSGYGTDFTLTINNIESEDAAYYFCQQYNSYPLTFGQGTKVEIKR
notes: as for B1
B4: BAP058-hum14 (antibody, human IgG4 S228P, kappa, V domains shown)
VH: B1 VH
VL: EIVLTQSPDFQSVTPKEKVTITCKASQDVGTAVAWYQQKPGQAPRLLIYWASTRHTGVPSRFSGSGSGTEFTLTISSLQPDDFATYYCQQYNSYPLTFGQGTKVEIKR
notes: as for B1
B5: BAP058-hum09 (antibody, human IgG4 S228P, kappa, V domains shown)
VH: EVQLVQSGAEVKKPGESLRISCKGSGYTFTSYWMYWIRQPPGKGLEWIGRIDPNSGSTKYNEKFKNRVTITADKSTSTAYMELSSLRSEDTAVYYCARDYRKGLYAMDYWGQGTTVTVSS
VL: B1 VL
notes: as for B1
B6: BAP058-hum16 (antibody, human IgG4 S228P, kappa, V domains shown)
VH: B1 VH with V37I, A40S, T41P, G42S, Q43R, M48L
VL: B4 VL
notes: as for B1
B7: BAP058-hum08 (antibody, human IgG4 S228P, kappa)
heavy: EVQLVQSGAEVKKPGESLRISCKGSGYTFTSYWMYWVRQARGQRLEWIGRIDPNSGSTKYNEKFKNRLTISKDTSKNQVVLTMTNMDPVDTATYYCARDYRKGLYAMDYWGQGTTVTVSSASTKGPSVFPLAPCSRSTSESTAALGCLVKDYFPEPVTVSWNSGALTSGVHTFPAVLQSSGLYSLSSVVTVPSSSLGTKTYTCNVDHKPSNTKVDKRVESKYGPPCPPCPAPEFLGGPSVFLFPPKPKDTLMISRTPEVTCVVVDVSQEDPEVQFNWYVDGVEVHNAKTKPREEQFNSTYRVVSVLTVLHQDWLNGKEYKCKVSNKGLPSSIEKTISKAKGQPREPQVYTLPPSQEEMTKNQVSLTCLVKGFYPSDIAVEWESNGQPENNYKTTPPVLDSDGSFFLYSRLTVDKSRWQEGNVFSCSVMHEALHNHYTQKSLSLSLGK
light: DVVMTQSPLSLPVTLGQPASISCKASQDVGTAVAWYQQKPGQAPRLLIYWASTRHTGVPSRFSGSGSGTEFTLTISSLQPDDFATYYCQQYNSYPLTFGQGTKVEIKRTVAAPSVFIFPPSDEQLKSGTASVVCLLNNFYPREAKVQWKVDNALQSGNSQESVTEQDSKDSTYSLSSTLTLSKADYEKHKVYACEVTHQGLSSPVTKSFNRGEC
notes: as for B1
B8: BAP058-hum17 (antibody, human IgG4 S228P, kappa)
heavy: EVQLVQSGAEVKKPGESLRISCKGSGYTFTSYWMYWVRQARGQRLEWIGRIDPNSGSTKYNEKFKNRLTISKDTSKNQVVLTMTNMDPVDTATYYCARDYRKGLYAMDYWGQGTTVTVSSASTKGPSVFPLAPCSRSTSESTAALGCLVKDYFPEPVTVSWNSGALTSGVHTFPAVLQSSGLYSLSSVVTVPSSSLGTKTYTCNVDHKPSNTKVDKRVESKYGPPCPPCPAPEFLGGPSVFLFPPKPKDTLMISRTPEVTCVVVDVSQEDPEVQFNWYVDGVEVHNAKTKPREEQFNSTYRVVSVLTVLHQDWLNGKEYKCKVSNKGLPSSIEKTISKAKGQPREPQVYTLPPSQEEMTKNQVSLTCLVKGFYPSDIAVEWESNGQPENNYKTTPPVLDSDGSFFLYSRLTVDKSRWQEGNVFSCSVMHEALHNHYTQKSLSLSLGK
light: EIVLTQSPDFQSVTPKEKVTITCKASQDVGTAVAWYQQKPGQAPRLLIYWASTRHTGVPSRFSGSGSGTEFTLTISSLQPDDFATYYCQQYNSYPLTFGQGTKVEIKRTVAAPSVFIFPPSDEQLKSGTASVVCLLNNFYPREAKVQWKVDNALQSGNSQESVTEQDSKDSTYSLSSTLTLSKADYEKHKVYACEVTHQGLSSPVTKSFNRGEC
notes: as for B1
B9: BAP058-hum03 (antibody, human IgG4 S228P, kappa, V domains shown)
VH: B5 VH with E16A, S17T, L18V, R19K, G24V, I37V, P40A, P41T, K43Q, I48M
VL: EIVLTQSPDFQSVTPKEKVTITCKASQDVGTAVAWYLQKPGQSPQLLIYWASTRHTGVPDRFSGSGSGTDFTLKISRVEAEDVGVYYCQQYNSYPLTFGQGTKVEIKR
notes: as for B1
B10: BAP058-hum05 (antibody, human IgG4 S228P, kappa, V domains shown)
VH: EVQLVQSGAEVKKPGATVKISCKVSGYTFTSYWMYWIRQSPSRGLEWLGRIDPNSGSTKYNEKFKNRLTISKDTSKNQVVLTMTNMDPVDTATYYCARDYRKGLYAMDYWGQGTTVTVSS
VL: B4 VL with Q37L, A43S, R45Q, E70D, L73F, D81E, F83I
notes: as for B1
B11: BAP058-hum04 (antibody, human IgG4 S228P, kappa, V domains shown)
VH: EVQLVQSGAEVKKPGESLRISCKGSGYTFTSYWMYWVRQAPGQGLEWMGRIDPNSGSTKYNEKFKNRVTISVDTSKNQFSLKLSSVTAADTAVYYCARDYRKGLYAMDYWGQGTTVTVSS
VL: B4 VL with Q37L, A43S, R45Q, E70D, L73F, D81E, F83I
notes: as for B1
B12: BAP058-hum06 (antibody, human IgG4 S228P, kappa, V domains shown)
VH: B5 VH
VL: B4 VL with Q37L, A43S, R45Q, E70D, L73F, D81E, F83I
notes: as for B1
B13: BAP058-hum15 (antibody, human IgG4 S228P, kappa, V domains shown)
VH: B5 VH
VL: B4 VL
notes: as for B1
B14: BAP058-hum10 (antibody, human IgG4 S228P, kappa, V domains shown)
VH: QITLKESGPTLVKPTQTLTLTCTFSGYTFTSYWMYWVRQAPGKGLEWVSRIDPNSGSTKYNEKFKNRVTITADKSTSTAYMELSSLRSEDTAVYYCARDYRKGLYAMDYWGQGTTVTVSS
VL: DVVMTQSPLSLPVTLGQPASISCKASQDVGTAVAWYQQKPGQAPRLLIYWASTRHTGVPSRFSGSGSGTEFTLTISSLQPDDFATYYCQQYNSYPLTFGQGTKVEIKR
notes: as for B1
B15: BAP058-hum12 (antibody, human IgG4 S228P, kappa, V domains shown)
VH: B11 VH
VL: B2 VL with L37Q, S43A, Q45R, L73F, F83I
notes: as for B1
B16: chimeric mAb BAP058-chi (antibody, V domains shown)
VH: EVQLQQSGAELVKPGASVKLSCKASGYTFTSYWMYWVKQGPGRGLEWIGRIDPNSGSTKYNEKFKNKATLTVDKSSSTAYMQLSSLTSEDSAVYYCARDYRKGLYAMDYWGQGTTVTVSS
VL: DIMMTQSHKFMSTSVGDRVSITCKASQDVGTAVAWYQQKPGQSPKLLIYWASTRHTGVPDRFTGSGSGTDFTLTISNVQSEDLADYFCQQYNSYPLTFGQGTKVEIK
notes: also called chimeric antibody; the chimera

Residue numbers refer to the chain shown, from its start. Names and notes keep the numbering of the source.

T3 sequence (G7PSE7 entry or part of it): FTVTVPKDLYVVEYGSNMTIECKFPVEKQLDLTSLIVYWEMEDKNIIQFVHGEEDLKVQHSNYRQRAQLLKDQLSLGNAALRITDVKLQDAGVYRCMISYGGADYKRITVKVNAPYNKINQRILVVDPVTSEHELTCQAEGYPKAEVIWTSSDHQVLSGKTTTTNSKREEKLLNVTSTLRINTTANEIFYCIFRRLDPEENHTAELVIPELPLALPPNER

One test deals with T1, human PD-L1 expressed on 300.19 cells (human, UniProt Q9NZQ7 19-290).
T1 construct: whole, on cells; also called huPD-L1; PD-L1-expressing 300.19 cells
T1 sequence (Q9NZQ7 19-290): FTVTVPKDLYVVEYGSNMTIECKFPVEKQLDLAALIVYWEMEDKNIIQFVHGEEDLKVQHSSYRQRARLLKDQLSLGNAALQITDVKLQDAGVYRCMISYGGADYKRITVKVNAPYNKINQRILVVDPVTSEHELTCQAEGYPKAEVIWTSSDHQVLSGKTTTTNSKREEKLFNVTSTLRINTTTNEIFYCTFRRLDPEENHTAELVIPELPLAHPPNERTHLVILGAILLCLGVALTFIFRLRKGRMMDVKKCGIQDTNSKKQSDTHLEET
The experiment in a line: semi-quantitative ranking in the binding studies (4th column, p-1058; FACS data, p-1056); high number = poorer binder; the column's head says only 'Rank'.
B1: the Rank is 17.

Take B2: the Rank amounted to 17.

For B3, the Rank amounted to 2.

B4 gave a Rank of 4.

For the molecule B5, the Rank came out at 3.

In turn, B6 came in with a Rank of 4.

In turn, B7 showed a Rank of 17.

B8 showed a Rank of 4.

B9 gave a Rank of 1.

For B10, the Rank is 2.

The molecule B11 yielded a Rank of 3.

On to B12, for which the Rank was 2.

B13 returned a Rank of 17.

Molecule B14 gave a Rank of 4.

As for B15, the Rank came out at 4.

Another test deals with T2, human PD-L1 protein (human, UniProt Q9NZQ7 19-238, limits assumed).
T2 construct: Construct not described
T2 sequence (Q9NZQ7 19-238 limits assumed): as the sequence (G7PSE7 entry or part of it) above, with T33A, S34A, N62S, Q68R, R82Q, L173F, A185T, I192T, L215H counted along it
The test can be described thus: Biacore T-100; IgG captured by anti-human Fab on CM5 chip, PD-L1 flowed over (100-1.56 nM), 1:1 fit. The method, then:
(§1) Immobilization was done at 25° C. using a flow rate of 10 μl/min. […] Test antibody was captured on Flow cell FC2, FC3 and FC4. […] Run Biacore Wizards Kinetic/Affinity: association time 120 sec, dissociation 600 sec. (Running buffer HBS-EP+BSA 0.25 mg/ml, Regeneration buffer: 10 mM glycine HCl pH 2.1). Data analyses were done with Biacore T-100 Evaluation software version 2, fit on 1:1.
In general terms: SPR reads the build-up and loss of mass on a sensor chip optically.
A word on the Kd: it is a measure of binding affinity in units of concentration. Molecule B11 yielded a Kd of 2.14 nM.

For the next test, the target named is mouse PD-L1 protein (mouse, UniProt Q9EP73 19-238, limits assumed). The description is as above. How it is done: as §1
Chain of mouse PD-L1 protein (Q9EP73 19-238 limits assumed): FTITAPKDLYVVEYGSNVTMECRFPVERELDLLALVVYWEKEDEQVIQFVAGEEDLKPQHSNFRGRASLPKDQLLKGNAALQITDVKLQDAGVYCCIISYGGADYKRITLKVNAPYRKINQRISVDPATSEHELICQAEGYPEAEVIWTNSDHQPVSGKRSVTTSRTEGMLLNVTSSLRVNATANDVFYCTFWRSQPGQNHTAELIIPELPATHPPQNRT
The molecule B11 showed a Kd of 77.4 nM.

The next test addresses T3, cynomolgus PD-L1 protein (cynomolgus, UniProt G7PSE7 19-238).
T3 construct: also called Monkey PD-L1; cyno PD-L1
The description is as above. The method, then:
as §1
The molecule B11 displayed a Kd of 0.369 nM.

The target of the next test is rat PD-L1 protein (rat, UniProt D4AE25 19-239). The test is described as above. How it is done: as §1
Chain of rat PD-L1 protein (D4AE25 entry or part of it limits assumed): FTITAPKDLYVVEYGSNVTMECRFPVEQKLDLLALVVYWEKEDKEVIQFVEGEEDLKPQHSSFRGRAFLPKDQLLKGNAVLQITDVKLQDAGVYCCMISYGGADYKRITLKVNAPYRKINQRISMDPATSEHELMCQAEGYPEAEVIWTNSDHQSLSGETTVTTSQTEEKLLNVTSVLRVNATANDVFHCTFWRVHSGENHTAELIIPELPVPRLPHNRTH
The molecule B11 gave a Kd of 6.14 nM. In other words, the single-digit nanomolar range.

The next test concerns the target T1, human PD-L1 expressed on 300.19 cells. The test can be described thus: blocking of PE-labelled PD-1-Ig (0.7 µg/mL) binding to PD-L1-expressing 300.19 cells, FACS, 4 C, 4 h. How it is done:
Bound fluorescence was then measured using FACS and IC₅₀ values determined using Prism software.
For the molecule B3, the “IC50 (read off the curve)” value is roughly 0.04 µg/mL.

B16: the “IC50 (read off the curve)” value is roughly 0.04 µg/mL.

Consider B9, for which the “IC50 (read off the curve)” value is roughly 0.04 µg/mL.

Take B11: the “IC50 (read off the curve)” value is roughly 0.04 µg/mL.

The target is the same in the next test. The experiment in a line: competition FACS against Alexa 488-labeled murine BAP058 on PD-L1-expressing 300.19 cells. How it is done: Incubations with the mAb mixtures having different concentration ratios of test mAb to labeled mAb was at 4° C. for 30 min. Bound labeled murine mAb was then quantified using a FACS machine. The experiment was performed twice.
For B1, the “Comp. binding (ratio conc. test mAb / conc. labelled murine BAP058 at the IC50)” value amounted to 2.56.

With B2, the “Comp. binding (ratio conc. test mAb / conc. labelled murine BAP058 at the IC50)” value amounted to 2.14.

B3: the “Comp. binding (ratio conc. test mAb / conc. labelled murine BAP058 at the IC50)” value amounted to 1.8.

For the molecule B4, the “Comp. binding (ratio conc. test mAb / conc. labelled murine BAP058 at the IC50)” value stood at 4.59.

As for B5, the “Comp. binding (ratio conc. test mAb / conc. labelled murine BAP058 at the IC50)” value worked out at 1.96.

Turning to B6, the “Comp. binding (ratio conc. test mAb / conc. labelled murine BAP058 at the IC50)” value is 2.47.

With B7, the “Comp. binding (ratio conc. test mAb / conc. labelled murine BAP058 at the IC50)” value was determined as 3.38.

Regarding B8, the “Comp. binding (ratio conc. test mAb / conc. labelled murine BAP058 at the IC50)” value was determined as 2.16.

As for B9, the “Comp. binding (ratio conc. test mAb / conc. labelled murine BAP058 at the IC50)” value stood at 1.87.

Consider B10, for which the “Comp. binding (ratio conc. test mAb / conc. labelled murine BAP058 at the IC50)” value stood at 1.71.

In the case of B11, the “Comp. binding (ratio conc. test mAb / conc. labelled murine BAP058 at the IC50)” value was 1.13.

Consider B12, for which the “Comp. binding (ratio conc. test mAb / conc. labelled murine BAP058 at the IC50)” value was determined as 1.39.

Consider B13, for which the “Comp. binding (ratio conc. test mAb / conc. labelled murine BAP058 at the IC50)” value came to 4.64.

As to B15, the “Comp. binding (ratio conc. test mAb / conc. labelled murine BAP058 at the IC50)” value is 2.27.

Values taken from US20160108123A1 (Novartis, published 2016).
